Experiment [1] has as its target T1, τ131 (123–566) E472K (S. cerevisiae, UniProt P33339 123-566, E472K).
T1 construct: source: E. coli, purified by the same method as the wild type; not shown: His6, N-terminal, cleaved
T1 sequence (looked up): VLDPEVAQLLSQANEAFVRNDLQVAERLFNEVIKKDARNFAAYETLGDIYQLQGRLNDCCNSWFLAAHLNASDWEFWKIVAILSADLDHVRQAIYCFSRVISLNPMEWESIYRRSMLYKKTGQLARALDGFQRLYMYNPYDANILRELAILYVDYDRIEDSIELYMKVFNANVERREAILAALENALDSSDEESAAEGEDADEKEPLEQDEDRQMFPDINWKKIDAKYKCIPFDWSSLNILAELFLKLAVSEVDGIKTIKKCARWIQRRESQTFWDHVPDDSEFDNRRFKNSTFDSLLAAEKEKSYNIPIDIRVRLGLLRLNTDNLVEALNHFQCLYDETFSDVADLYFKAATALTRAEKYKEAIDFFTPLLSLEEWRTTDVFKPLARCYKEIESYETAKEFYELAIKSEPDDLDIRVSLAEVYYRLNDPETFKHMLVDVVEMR
Put plainly: pull-down; 15 μg GST-τ138 (641–693) on Glutathione Sepharose 4B; 900 nM wild-type or mutant τ131; 50 mM Tris pH 7.5, 150 mM NaCl, 2 mM DTT, 0.1% Tween20; 4 °C, 4 h. The following applies: both partners purified.

For experiment [2], the target named is T2, τ131 (123–566) E497K (S. cerevisiae, UniProt P33339 123-566, E497K).
T2 construct: source: E. coli, purified by the same method as the wild type; not shown: His6, N-terminal, cleaved
T2 sequence (looked up): T1 sequence (looked up) with K350E, E375K
The experiment is described as above. The following applies: both partners purified.

For experiment [3], the target named is T3, τ131 (123–566) E498K (S. cerevisiae, UniProt P33339 123-566, E498K).
T3 construct: source: E. coli, purified by the same method as the wild type; not shown: His6, N-terminal, cleaved
T3 sequence (looked up): T1 sequence (looked up) with K350E, E376K
The experiment is described as above. To be noted: both partners purified.

Experiment [4] has as its target T4, τ131 (123–566) E497K (S. cerevisiae, UniProt P33339 123-566, E497K).
T4 sequence: T1 sequence (looked up) with K350E, E375K
Put plainly: ITC. Background: ITC needs no label: the signal is the heat of the interaction.

The target in experiment [5] is T5, τ131 (123–566) E472K (S. cerevisiae, UniProt P33339 123-566, E472K).
T5 sequence: T1 sequence (looked up)
Put plainly: ITC.

For experiment [6], the target named is T6, τ131 (123–566) E498K (S. cerevisiae, UniProt P33339 123-566, E498K).
T6 sequence: T1 sequence (looked up) with K350E, E376K
Put plainly: ITC.

The target in experiment [7] is T7, GST-tagged τ131 (123–566) E497K (S. cerevisiae, UniProt P33339 123-566, E497K).
T7 construct: source: E. coli BL21 (DE3) Gold, purified (GST column, S200 SEC)
T7 sequence (looked up): T1 sequence (looked up) with K350E, E375K
Put plainly: pull-down; 15 μg GST-tagged τ131 on Glutathione Sepharose 4B; 300 nM τ138 or Bdp1, or 1 μM Brf1–TBP; 50 mM Tris pH 7.5, 150 mM NaCl, 2 mM DTT, 0.1% Tween20; 4 °C, 4 h. To be noted: both partners purified.

Experiment [8] addresses T8, GST-tagged τ131 (123–566) E472K (S. cerevisiae, UniProt P33339 123-566, E472K).
T8 construct: source: E. coli BL21 (DE3) Gold, purified (GST column, S200 SEC)
T8 sequence (looked up): T1 sequence (looked up)
The experiment is described as above. To be noted: both partners purified.

Experiment [9] has as its target T9, GST-tagged τ131 (123–566) E498K (S. cerevisiae, UniProt P33339 123-566, E498K).
T9 construct: source: E. coli BL21 (DE3) Gold, purified (GST column, S200 SEC)
T9 sequence (looked up): T1 sequence (looked up) with K350E, E376K
The description is as above. To be noted: both partners purified.

The target of experiment [10] is T1, τ131 (123–566) E472K. Put plainly: ITC; MicroCal ITC200; 15 μM τ138 in the cell, 150 μM τ131 in the syringe; 20 mM Tris pH 7.5, 150 mM NaCl, 2 mM β-mercaptoethanol; 25 °C. The following applies: both partners purified.
Experiment [11] addresses T10, τ131 (123–566), TPR array, wild type (S. cerevisiae, UniProt P33339 123-566).
T10 construct: also called τ131 TPR array; source: E. coli BL21 Star (DE3) pRARE, purified (Ni-NTA, TEV cleavage, S200 SEC); not shown: His6, N-terminal, cleaved
T10 sequence (looked up): T1 sequence (looked up) with K350E
The description is as above. The following applies: both partners purified.

Experiment [12] concerns the target T2, τ131 (123–566) E497K. The experiment is described as above. To be noted: both partners purified.
Experiment [13] has as its target T3, τ131 (123–566) E498K. The experiment is described as above. The following applies: both partners purified.
Experiment [14] deals with T11, τ95 (Tfc1), τA subunit of endogenous S. cerevisiae TFIIIC (S. cerevisiae, UniProt P32367 1-649).
T11 construct: τ95 (Tfc1), subunit of S. cerevisiae TFIIIC, endogenous subunit in the purified complex; source: endogenous, purified from S. cerevisiae strain SC2342 as part of TFIIIC (TAP tag on τ60)
T11 sequence (looked up): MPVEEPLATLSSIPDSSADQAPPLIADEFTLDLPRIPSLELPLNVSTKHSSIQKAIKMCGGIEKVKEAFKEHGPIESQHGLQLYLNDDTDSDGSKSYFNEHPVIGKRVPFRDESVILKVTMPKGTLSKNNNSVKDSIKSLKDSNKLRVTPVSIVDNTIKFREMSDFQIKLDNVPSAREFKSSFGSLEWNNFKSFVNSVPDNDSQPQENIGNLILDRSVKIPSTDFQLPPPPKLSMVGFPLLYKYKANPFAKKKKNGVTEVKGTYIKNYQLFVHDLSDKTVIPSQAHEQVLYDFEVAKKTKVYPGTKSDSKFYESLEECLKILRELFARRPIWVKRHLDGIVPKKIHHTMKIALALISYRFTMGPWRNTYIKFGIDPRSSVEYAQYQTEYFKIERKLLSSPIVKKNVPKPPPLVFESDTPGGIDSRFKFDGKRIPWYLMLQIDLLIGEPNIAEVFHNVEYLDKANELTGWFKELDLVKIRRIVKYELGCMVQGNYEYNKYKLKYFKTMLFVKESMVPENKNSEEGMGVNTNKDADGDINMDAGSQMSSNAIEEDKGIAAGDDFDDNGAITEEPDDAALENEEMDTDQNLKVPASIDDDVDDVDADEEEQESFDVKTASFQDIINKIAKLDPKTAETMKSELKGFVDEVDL
Put plainly: cross-linking; XL-MS: purified endogenous TFIIIC (30 μg, 1 μg/μl) cross-linked with H12/D12 DSS to 2 mM, 40 min at 37 °C; ld-score >25. The following applies: both partners purified.

Numbering of substitutions follows the chain as printed.

As a reminder, the Kd is the free concentration of one partner at which half of the binding sites on the other are occupied at equilibrium, for simple one-to-one binding. A high value points to lower affinity.

B1: GST-τ138 (641–693) (domain or fragment, S. cerevisiae, UniProt P34111 641-693, looked up)
chain: SKKATFTDVIHDTEIYFFDQTEKNRFHRGKKSVERIRKFQNRQKNAKIKASDD
notes: also called GST-tagged τ138; source: E. coli BL21 (DE3) Gold, purified (GST column, S200 SEC)
Regarding B1, the binding result in the experiment with τ131 (123–566) E472K [1], in the experiment with τ131 (123–566) E497K [2] and with τ131 (123–566) E498K [3] was “binds” throughout.

B2: τ138 (546–693), eWH-τIR (domain or fragment, S. cerevisiae, UniProt P34111 546-693, looked up)
chain: SARSLRSLQRQRAILKVMNTIGGVAYLREQFYESVSKYMGSTTTLDKKTVRGDVDLMVESEKLGARTEPVSGRKIIFLPTVGEDAIQRYILKEKDSKKATFTDVIHDTEIYFFDQTEKNRFHRGKKSVERIRKFQNRQKNAKIKASDD
notes: the cloning of this construct is not described; also called τ138 (eWH-τIR); central region of τ138; source: purified; expression of this construct not described
For the molecule B2, the dissociation constant (Kd) was 99 nM in the experiment with τ131 (123–566) E497K [4], 415 nM with τ131 (123–566) E472K [5], 971 nM with τ131 (123–566) E498K [6] and approximately 100 nM in experiment [11]. Besides, the binding result (in experiment [7]; in experiment [8]; in experiment [9]; with τ131 (123–566) E472K [10]; in the experiment with τ131 (123–566) E497K [12]; in the experiment with τ131 (123–566) E498K [13]) was “binds” each time.

B3: τ55 (Tfc7), τA subunit of endogenous S. cerevisiae TFIIIC (natural protein, UniProt Q12415 1-435, looked up)
chain: MVVNTIYIARHGYRSNWLPEGPYPDPLTGIDSDVPLAEHGVQQAKELAHYLLSLDNQPEAAFASPFYRCLETVQPIAKLLEIPVYLERGIGEWYRPDRKPVIPVPAGYEILSKFFPGVISQEWDSTLTPNEKGETEQEMYMRFKKFWPLFIERVEKEYPNVECILLVTHAASKIALGMSLLGYDNPRMSLNENGDKIRSGSCSLDKYEILKKSYDTIDETDDQTSFTYIPFSDRKWVLTMNGNTEFLSSGEEMNWNFDCVAEAGSDADIKKRQMTKKTSSPIPEADDQTEVETVYISVDIPSGNYKERTEIAKSAILQYSGLETDAPLFRIGNRLYEGSWERLVGTELAFPNAAHVHKKTAGLLSPTEENETTNAGQSKGSSTANDPNIQIQEEDVGLPDSTNTSRDHTGDKEEVQSEKIYRIKERIVLSNVRPM
notes: τ55 (Tfc7), subunit of S. cerevisiae TFIIIC, endogenous subunit in the purified complex; source: endogenous, purified from S. cerevisiae strain SC2342 as part of TFIIIC (TAP tag on τ60)
On to B3, for which the binding result in experiment [14] is “binds”.

(Values after PMC4490372, “Architecture of TFIIIC and its role in RNA polymerase III pre-initiation complex assembly” (Nature Communications, 2015).)
